Test results as given in patent US6846636B1, “Methods and compositions for HDL holoparticle uptake receptor” (American National Red Cross, priority 1998, dated 2005).

What was measured:
[1] = tested on: RA/Bt2cAMP-treated F9 cells; assay: [125I]-HDL internalization and degradation assay; assay type: cell-based, mouse; details: [125I]-HDL 2 μg/ml, 6.5 h at 37° C.; unlabeled HDL 80 μg/ml, RAP 1 μM, chloroquine 50 μM, anti-cubilin IgG 150 μg/ml
Method: HDL internalization and degradation assays were performed in a manner similar to LDL and apolipoprotein J internalization and degradation assays described previously (Stefansson et al., 1995; Kounnas et al., 1995). ApoE-free HDL (HDL3) was labeled with [^125I]-iodine using the iodine monochloride method (Goldstein et al., 1983). RA/Bt2cAMP-treated and -untreated F9 cells were seeded onto gelatin-coated 3.83 cm^2 wells (Corning, Corning, N.Y.) at 1.5-1.75×10^5 cells/well and allowed to grow for 18 h at 37° C., 5% CO2. Prior to the addition of [^125I]-HDL, the cells were washed with serum-free DMEM and incubated in the assay medium (DMEM, 20 mM HEPES, ITS, penicillin/streptomycin, and 1.5% BSA) containing unlabeled HDL3 (80 μg/ml), RAP (1 μM), chloroquine (50 μM) (Sigma) or BSA (10 μM) and incubated for 0.5 hours at 37° C., 5% CO2. The medium was then removed and [^125I]-HDL3 (2 μg/ml) in serum-free medium or in serum-free medium containing unlabeled HDL3 (80 μg/ml), RAP (1 μM), chloroquine (50 μM) or BSA (10 μM) was added and incubated with the cells for 6.5 h at 37° C., 5% CO2. The conditioned culture medium was treated with trichloroacetic acid (final concentration 10%) and centrifuged at 10,000×g for 10 min. The amount of radioactivity present in the supernatant was taken to represent the amount of degraded HDL (Goldstein and Brown, 1974). […] The released cells were pelleted by centrifugation at 1,000×g for 15 min and the amount of radioactivity in the cell pellet measured.
HDL internalization and degradation assays were performed as described previously for LDL and apolipoprotein J (Hammad et al., 1997; Kounnas et al., 1995; Stefansson et al., 1995a). […] The amount of radioactivity in the supernatant was taken to represent the amount of degraded HDL (Goldstein and Brown, 1974). […] The released cells were pelleted by centrifugation at 1,000×g for 15 min and the amount of radioactivity in the cell pellet was measured and taken to represent the amount of internalized HDL.

[2] = tested on: visceral yolk sac endoderm; assay: DiI-HDL uptake by mouse embryo yolk sac (ex utero culture, confocal microscopy); details: ± S.D.; DiI-HDL 1 μg/ml 1 h; RAP, ovalbumin 1 μM; IgGs 400 μg/ml; p<0.01 vs control
Method: Embryos (8-8.5 days post-conception) were removed from timed pregnant ICR mice (Harlan Sprague Dawley, Inc.) so as to leave visceral yolk sac endoderm intact and placed in DMEM. The embryos were then incubated in DMEM containing RAP (1 μM), ovalbumin (1 μM), rabbit anti-cubilin IgG (400 μg/ml) or normal rabbit IgG (400 μg/ml) for 0.5 h at 37° C., 5% CO2. DiI-HDL was added to a final concentration of (1 μg/ml) and incubated for 1 h at 37° C., 5% CO2. The medium was removed and the embryos gently washed with dPBS and fixed with 3% paraformaldehyde for 15 min. The fixed embryos were placed in dPBS, 0.1% azide in a well slide and examined by laser scanning confocal microscopy. The intensity of yolk sac fluorescence in mouse embryos incubated with DiI-HDL in the presence of either RAP, ovalbumin, anti-cubilin IgG or control IgG was evaluated by seven people in a double blinded fashion. The assessments of relative intensity were analyzed by a nonparametric statistical test using RANK and ANOVA procedures (SAS Institute, Inc., Cary, N.C.).

B1: RAP: 39 kDa chaperone protein that inhibits ligand binding to LDLR family members; recombinant human RAP (protein, UniProt P30533 35-357, looked up)
Alpha-2-macroglobulin …: YSREKNQPKPSPKRESGEEFRMEKLNQLWEKAQRLHLPPVRLAELHADLKIQERDELAWKKLKLDGLDEDGEKEARLIRNLNVILAKYGLDGKKDARQVTSNSLSGTQEDGLDDPRLEKLWHKAKTSGKFSGEELDKLWREFLHHKEKVHEYNVLLETLSRTEEIHENVISPSDLSDIKGSVLHSRHTELKEKLRSINQGLDRLRRVSHQGYSTEAEFEEPRVIDLWDLAQSANLTDKELEAFREELKHFEAKIEKHNHYQKQLEIAHEKLRHAESVGDGERVSRSREKHALLEGRTKELGYTVKKHLQDLSGRISRARHNEL
In the case of B1, the “degradation of [125I]-HDL” value [1] is reported as “inhibited the endocytosis and degradation”, the “internalization (endocytosis) of [125I]-HDL” value [1] is reported as “inhibited the endocytosis and degradation” and the “fluorescence intensity RANK score of DiI-HDL incorporation into extraembryonic endoderm” value [2] is reported as 9.77±0.22.
